From patent US20120190819A1 (MEDICAL RESEARCH COUNCIL, published 2012)
Positions count from the first letter of the chain named.

Experiments:
[1] = target: the molecule itself; assay: gel filtration (self-association, domain-swapped dimer)
Description: (§1) To confirm that the engineered scaffold was correctly folded, we used gel filtration chromatography to ask whether we could detect any denatured or dimerized STM in its native form. Recombinant STM AU1 migrated close to its predicted size and similarly to wild type SteA (FIG. 3, panel A). When the protein preparations were heated to 75° C. before gel filtration, a proportion of SteA migrated as a dimer. […] The CD spectra of native SteA at 25° C. and 50° C. and native STM AU1 at 25° C. and 50° C.

[2] = target: the molecule itself; assay: SDS-PAGE after 75° C. or ice (self-association)
Description: We wished to ascertain whether we could insert peptides into STM without affecting its stability as a protein. We modelled a peptide aptamer by inserting the six residue “AU1” epitope tag (DTYRYI) (SEQ ID NO: 32) into the engineered loop. We wished to retain the thermostability of SteA but abolish its dimerization by domain-swapping, which is enhanced by heating. We incubated recombinant SteA, STM and STM AU1 at 75° C. or on ice for 20 minutes, and removed any denatured protein by centrifugation. […] As expected, this dimeric form is completely abolished in both STM and STM AU1 (FIG. 2A).

[3] = target: T1, carboxymethylated papain on agarose beads (Calbiochem) (UniProt P00784 134-345, carboxymethylated); assay: papain-agarose pull-down, western blot with anti-SteA
T1 construct: also called immobilized papain; papain-agarose beads
T1 sequence (looked up): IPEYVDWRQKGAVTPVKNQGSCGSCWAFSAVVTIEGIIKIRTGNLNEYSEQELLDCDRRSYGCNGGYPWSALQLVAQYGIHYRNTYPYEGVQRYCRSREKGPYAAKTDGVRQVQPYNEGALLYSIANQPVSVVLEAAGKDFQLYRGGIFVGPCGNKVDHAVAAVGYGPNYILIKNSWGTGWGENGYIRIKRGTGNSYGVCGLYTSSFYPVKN
Description: Agarose beads carrying carboxymethylated papain (Calbiochem) were washed three times in EB (equilibration buffer: 50 mM sodium phosphate pH 6.5, 0.5M NaCl, 0.1% non-detergent sulfobetaines). The beads were blocked with 1 mg/ml BSA in EB for 30 mins at 4° C. and washed three more times in EB. 300 μg of recombinant SteA or STM AU1 in 1×TBS buffer was diluted into EB to produce a total of volume of 500 μL and incubated with the beads with turning end over end for 90 mins at 4° C. The beads were then washed three times in EB and resuspended in 50 μl of sample buffer for analysis by 12% SDS-PAGE gel and western blotting using an anti-steA monoclonal antibody (C5/2, Maryland Biosciences).

[4] = target: the molecule itself; assay: gel filtration after heating to 75° C. (self-association)
Description: as §1

[5] = target: T2, SH3 domain of yeast Sho1p (yeast two-hybrid bait, pEG202-Sho1-SH3) (yeast, UniProt P40073 300-367, limits assumed); assay: yeast two-hybrid interaction mating
T2 construct: domain: SH3 domain; also called Sho1p SH3 domain
Text: The yeast genome encodes 25 proteins that between them comprise 28 SH3 domains. Each domain, or combination of domains, was cloned as a yeast two hybrid bait, and tested by interaction mating for its ability to recognise AptA. […] The SH3 domain of Bud14 is a self-activating bait, giving rise to a blue colour even when mated to an empty prey plasmid. […] AptA* is the mutant version of AptA where the two proline residues of the PxxP motif have been changed to alanines (PP/AA). STM is the empty scaffold.

T2 sequence (P40073 300-367 limits assumed): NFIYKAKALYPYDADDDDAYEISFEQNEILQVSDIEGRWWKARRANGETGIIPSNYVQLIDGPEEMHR

B1: wild type Stefin A (human, recombinant) (other)
chain: MIPGGLSEAKPATPEIQEIVDKVKPQLEEKTNETYGKLEAVQYKTQVVAGTNYYIKVRAGDNKYMHLKVFKSLPGQNEDLVLTGYQVDKNKDDELTGF
notes: Expressed in E. coli from pET30a(+) with a hexa-histidine tag; also called SteA; Cystatin A
- binding result [1]: binds

B2: STM (Stefin A Triple Mutant), recombinant, no insert (designed binder)
chain: B1 chain with G4W, V48D, K71N, S72G, L73P
notes: Expressed in E. coli from pET30a(+) with a hexa-histidine tag; also called STM triple mutant
- binding result [2]: no binding

B3: STM comprising target peptide AU1 epitope (designed binder)
chain: MIPWGLSEAKPATPEIQEIVDKVKPQLEEKTNETYGKLEAVQYKTQVDAGTNYYIKVRAGDNKYMHLKVFNGPDTYRYIGPPGQNEDLVLTGYQVDKNKDDELTGF
notes: Expressed in E. coli from pET30a(+) with a hexa-histidine tag; also called STM AU1; STM/AU1
- binding result [3]: no binding (tested: 300 µg)
- binding result [4]: no binding

B4: AptA* (AptA with the two prolines of the PxxP motif changed to alanines) (designed binder)
chain: MIPWGLSEAKPATPEIQEIVDKVKPQLEEKTNETYGKLEAVQYKTQVDAGTNYYIKVRAGDNKYMHLKVFNGPRLNKPLASLAV
notes: also called AptA PP/AA; AxxA mutation of AptA
- binding result [5]: no binding
